Test results as given in patent US20190359693A1.

What was measured:
[1] = molecular target: HA of H3N2 A/Brisbane/10/2007 (influenza A virus); assay: cell-based or functional assay
[2] = molecular target: HA of H1N1 A/New Caledonia/20/1999 (influenza A virus); assay: cell-based or functional assay
[3] = molecular target: HA of H3N2 A/Wisconsin/67/2005 (influenza A virus); assay: cell-based or functional assay
[4] = molecular target: HA of H5N1 A/Vietnam/1194/04 (influenza A virus); assay: cell-based or functional assay
[5] = molecular target: HA of H1N1 A/Brisbane/59/07 (influenza A virus); assay: cell-based or functional assay
[6] = molecular target: HA of H7N3 A/NIBRG/60 (A/mallard/NL/12/00) (influenza A virus); assay: cell-based or functional assay
[7] = molecular target: hemagglutinin (HA) of influenza virus B/Florida/04/06 (Yamagata) (influenza B virus); assay: cell-based or functional assay
[8] = molecular target: hemagglutinin (HA) of influenza virus B/Malaysia/2506/04 (Victoria) (influenza B virus); assay: cell-based or functional assay
[9] = molecular target: hemagglutinin (HA) of influenza virus B/Brisbane/60/08 (Victoria) (influenza B virus); assay: cell-based or functional assay
[10] = molecular target: hemagglutinin (HA) of influenza virus B/Lee/40 (Old) (influenza B virus) (UniProt P03460); assay: cell-based or functional assay
[11] = molecular target: hemagglutinin (HA) of influenza virus B/Harbin/7/94 (Yamagata) (influenza B virus); assay: cell-based or functional assay
[12] = molecular target: hemagglutinin (HA) of influenza A/Brisbane/10/07 (H3N2) (influenza A virus A/Brisbane/10/07 (H3N2)); assay: cell-based or functional assay
[13] = molecular target: hemagglutinin (HA) of influenza A/New York/107/03 (PR8) (influenza A virus A/New York/107/03 (PR8)); assay: cell-based or functional assay
[14] = molecular target: hemagglutinin (HA) of influenza A/chicken/Germany/n/49 (H10N7) (influenza A virus A/chicken/Germany/n/49 (H10N7)); assay: cell-based or functional assay
[15] = molecular target: hemagglutinin (HA) of influenza A/waterfowl/Hong Kong/MPA892/06 (H4) (influenza A virus A/waterfowl/Hong Kong/MPA892/06 (H4)); assay: cell-based or functional assay
[16] = molecular target: HA of H1N1 A/Puerto Rico/8/34-MA (influenza A virus); assay: cell-based or functional assay
[17] = molecular target: HA of B/Florida/04/2006 (Yamagata) (influenza B virus); assay: cell-based or functional assay
[18] = molecular target: HA of H4 A/WF/HK/MPA892/06 (influenza A virus); assay: cell-based or functional assay
[19] = molecular target: HA of H5N1 A/PR8 H5N1 HK97 (influenza A virus); assay: cell-based or functional assay
[20] = molecular target: HA of H10N7 A/Chick/Germany/N/49 (influenza A virus); assay: cell-based or functional assay
[21] = molecular target: HA of H3N2 A/HK/1/68 (influenza A virus) (UniProt Q91MA7); assay: cell-based or functional assay
[22] = molecular target: hemagglutinin (HA) of influenza virus H5N1 A/Vietnam/1194/04 (influenza A virus); assay: cell-based or functional assay
[23] = molecular target: hemagglutinin (HA) of influenza virus H7N3 A/NIBRG/60 (A/mallard/Netherlands/12/00) (influenza A virus); assay: cell-based or functional assay
[24] = molecular target: hemagglutinin (HA) of influenza virus H7N9 A/Anhui/1/13 (influenza A virus); assay: cell-based or functional assay
[25] = molecular target: hemagglutinin (HA) of influenza virus H3N2 A/Brisbane/10/07 (influenza A virus); assay: cell-based or functional assay
[26] = molecular target: HA of B/Florida/04/2006 (Yamagata) (influenza B virus); assay: AlphaLISA competition vs CR8033
[27] = molecular target: HA of B/Harbin/7/94 (Yamagata) (influenza B virus); assay: cell-based or functional assay
[28] = molecular target: HA of B/Brisbane/60/2008 (Victoria) (influenza B virus); assay: cell-based or functional assay
[29] = molecular target: HA of B/Malaysia/2506/04 (Victoria) (influenza B virus); assay: cell-based or functional assay

B1: SD1049 (VHH)
VHH: EVQLVESGGGLVQAGGSLRLSCAASGRTLSLYSVGWFRQAPGKEREFVATIGWNSGRTFYVDSMKGRFTISRDNAKNTVYLQMNDLKVEDTAVYYCAAAKGPLRLSNQADYWGQGTQVTVSS
- VNA titer [1]: 19.1 nM
- VNA titer [2]: > 1000 nM
- VNA titer [3]: > 1000 nM
- VNA titer [4]: > 1000 nM
- VNA titer [5]: > 1000 nM
- VNA titer [6]: 115 nM

B2: MD1224 (VHH)
chain: EVQLVESGGGLVQPGGSLKLSCAASGFTFSTSWMYWLRQAPGKGLEWVSVINTDGGTYYADSVKDRFTISRDNAKDTLYLQMSSLKSEDTAVYYCAKDWGGPEPTRGQGTQVTVSSAAAGGGGSGGGGSGGGGSGGGGSGGGGSGGGGSGGGGSEVQLVESGGGLVQPGGSLKLSCAASGFTFSTSWMYWLRQAPGKGLEWVSVINTDGGTYYADSVKDRFTISRDNAKDTLYLQMSSLKSEDTAVYYCAKDWGGPEPTRGQGTQVTVSS
- neutralization titer [7]: 0.8 nM
- neutralization titer [8]: 2.7 nM
- neutralization titer [9]: 4.1 nM
- neutralization titer [10]: 33 nM
- neutralization titer [11]: 4.5 nM

B3: SD3099 (VHH)
VHH: EVQLVESGGGLVQPGGSLRLSCAASGRTLSIYSMGWFRQAPGKEREFVATIGWNSGRTFYPDSVKGRFTISRDNSKNTLYLQMNSLRAEDTAVYYCAAAKGPLRLSSQADYWGQGTLVTVSS
- VNA IC50 [12]: 3 nM
- VNA IC50 [13]: 16 nM
- VNA IC50 [14]: 5 nM
- VNA IC50 [15]: 2 nM

B4: SD1070 (VHH)
VHH: EVQLVESGGGLVQAGGSLRISCAASGRTFSIYSMGWFRQAPGKEREFVATIGWNSGRTFYADSMKERFTISADNARNTLYLQMNSLKFEDTAVYYCAAAKGPLRLSSQADYWGQGTQVTVSS
- VNA titer [16]: > 1000 nM
- VNA titer [1]: 15.3 nM
- VNA titer [2]: > 1000 nM
- VNA titer [3]: > 1000 nM
- VNA titer [4]: > 1000 nM
- VNA titer [6]: 366 nM
- VNA titer [17]: > 1000 nM

B5: SD1069 (VHH)
VHH: EVQLVESGGGLVQAGDSLRLSCAASGPTFGMSAMGWFRQAPGKEREFVAAISGLGNPNYSDDVKGRFTISRENGRNTVYLQMNSLKPEDTAVYYCAQRKVYHVQGGDRPQAYDYWGQGTQVTVSS
- VNA titer [18]: > 1000 nM
- VNA titer [16]: 12.8 nM
- VNA titer [1]: > 1000 nM
- VNA titer [2]: 20.8 nM
- VNA titer [19]: 242 nM
- VNA titer [4]: 74 nM
- VNA titer [20]: > 1000 nM
- VNA titer [6]: > 1000 nM
- VNA titer [21]: > 1000 nM

B6: SD1076 (VHH)
VHH: EVQLVESGGGLVQAGGSLTLSCAGSGFAFSIATMGWYRQAPGKQRELVADITSGGSTNYADSVKGRFTISRDNAKNTVYLQMNSLKPEDTAVYYCNADSLATGWRQYSYWGKGTQVTVSS
- VNA titer [16]: 8.7 nM
- VNA titer [1]: > 1000 nM
- VNA titer [2]: 22.1 nM
- VNA titer [3]: > 1000 nM
- VNA titer [19]: 66.8 nM
- VNA titer [4]: 84.7 nM
- VNA titer [6]: > 1000 nM

B7: SD3097 (VHH)
VHH: EVQLLESGGGLVQPGGSLRLSCAASGRTYAMGWFRQAPGKEREFVAAINALGTRTYYADSVKGRFTISRDNSKNTLYLQMNSLRAEDTAVYYCTAQGQWRAAPVAVAAEYEFWGQGTLVTVSS
- VNA IC50 [12]: 17 nM
- VNA IC50 [13]: 8 nM
- VNA IC50 [14]: 6 nM
- VNA IC50 [15]: 6 nM

B8: MD2313 (bispecific antibody)
chain: EVQLVESGGGLVQAGDSLRISCAASGRTLSIYSMGWFRQAPGKEREFVATIGWNSGRTFYPDSLKGRFTISRDNARNTLYLQMNNLRPEDTAVYYCAAAKGPLRLSSQADYWGQGTQVTVSSGGGGSGGGGSEVQLVESGGGLVQAGDSLRISCAASGRTLSIYSMGWFRQAPGKEREFVATIGWNSGRTFYPDSLKGRFTISRDNARNTLYLQMNNLRPEDTAVYYCAAAKGPLRLSSQADYWGQGTQVTVSSGGGGSGGGGSEVQLVESGGGLVQPGGSLRLSCAATGFTLENKAIGWFRQTPGSEREGVLCISKSGSWTYYTDSMRGRFTISRDNAENTVYLQMDSLKPEDTAVYYCATTTAGGGLCWDGTTFSRLASSWGQGTQVTVSS
- average neutralization titer [22]: > 1000 nM
- average neutralization titer [23]: 6.5 nM
- average neutralization titer [24]: 21.7 nM
- average neutralization titer [25]: 7.7 nM

B9: SD1085 (VHH)
VHH: EVQLVESGGGLVQAGDSLRLSCVISGLSLDTYAVGWFRQAPGKEREGITCISSGHGMTYYADSVKGRFTVSTDNAKNTVYLQMNGLQPEDTARYYCATESRYYCSDNWPAPQRYIYWGQGTQVTVSS
- pIC50 [26]: < 7
- VNA titer [27]: 631 nM
- VNA titer [28]: 40.7 nM
- VNA titer [29]: 66.3 nM
- VNA titer [17]: 187 nM

B10: SD1073 (VHH)
VHH: EVQLVESGGGLVQAGGSLRLSCAASGSAFSIAAMGWYRQAPGKQRELVATITTGGSTNYADSVKGRFTISRDNSKNTAYLQMNSLKPEDTAVYYCTAKSVVAETFGDLYNYWGQGTQVTVSS
- VNA titer [18]: > 1000 nM
- VNA titer [16]: 89.6 nM
- VNA titer [1]: > 1000 nM
- VNA titer [2]: 98.9 nM
- VNA titer [19]: 179 nM
- VNA titer [4]: 224 nM
- VNA titer [20]: 317 nM
- VNA titer [6]: 135 nM
- VNA titer [21]: > 1000 nM

B11: MD1222 (bispecific antibody)
chain: EVQLVESGGGLVQPGGSLRLSCAATGFTLENKAIGWFRQTPGSEREGVLCISKSGSWTYYTDSMRGRFTISRDNAENTVYLQMDSLKPEDTAVYYCATTTAGGGLCWDGTTFSRLASSWGQGTQVTVSSAAAGGGGSGGGGSGGGGSGGGGSGGGGSGGGGSGGGGSEVQLVESGGGLVQPGGSLKLSCAASGFTFSTSWMYWLRQAPGKGLEWVSVINTDGGTYYADSVKDRFTISRDNAKDTLYLQMSSLKSEDTAVYYCAKDWGGPEPTRGQGTQVTVSS
- neutralization titer [7]: 2.1 nM
- neutralization titer [8]: 3.6 nM
- neutralization titer [9]: 3 nM
- neutralization titer [10]: 12.7 nM
- neutralization titer [11]: 7.2 nM
